Starred links: 1 amine or outer side, 2 acyl side, 3 side chain; linkers in the order of their positions; H or OH if unused. Non-standard residues stand in square brackets, D forms with d. Groups on a side chain read outwards from the residue. No end group written: not given here. *: point of attachment. C20 diacid = O=C(O)CCCCCCCCCCCCCCCCCCC(=O)*; C18 diacid = O=C(O)CCCCCCCCCCCCCCCCC(=O)*; γGlu = O=C(O)[C@H](CCC(=O)[*:2])N[*:1]; αMeF = C[C@](N)(Cc1ccccc1)C(=O)O; AEEA = NCCOCCOCC(=O)O; Aib = CC(C)(N)C(=O)O
B1: Peptide 441 (peptide)
peptide: H[Aib]QGTFTSDVSK[αMeF]LDKK([AEEA-AEEA-γGlu-C20 diacid])RAQDFVRWLL[Aib]E-NH2
modifications: N-terminus assumed
SMILES: CC(C)C[C@H](NC(=O)[C@H](Cc1c[nH]c2ccccc12)NC(=O)[C@H](CCCNC(=N)N)NC(=O)[C@@H](NC(=O)[C@H](Cc1ccccc1)NC(=O)[C@H](CC(=O)O)NC(=O)[C@H](CCC(N)=O)NC(=O)[C@H](C)NC(=O)[C@H](CCCNC(=N)N)NC(=O)[C@H](CCCCNC(=O)COCCOCCNC(=O)COCCOCCNC(=O)CC[C@H](NC(=O)CCCCCCCCCCCCCCCCCCC(=O)O)C(=O)O)NC(=O)[C@H](CCCCN)NC(=O)[C@H](CC(=O)O)NC(=O)[C@H](CC(C)C)NC(=O)[C@](C)(Cc1ccccc1)NC(=O)[C@H](CCCCN)NC(=O)[C@H](CO)NC(=O)[C@@H](NC(=O)[C@H](CC(=O)O)NC(=O)[C@H](CO)NC(=O)[C@@H](NC(=O)[C@H](Cc1ccccc1)NC(=O)[C@@H](NC(=O)CNC(=O)[C@H](CCC(N)=O)NC(=O)C(C)(C)NC(=O)[C@@H](N)Cc1c[nH]cn1)[C@@H](C)O)[C@@H](C)O)C(C)C)C(C)C)C(=O)N[C@@H](CC(C)C)C(=O)NC(C)(C)C(=O)N[C@@H](CCC(=O)O)C(N)=O
B2: Peptide 437 (peptide)
peptide: H[Aib]QGTFTSDVSK[αMeF]LDRK([AEEA-AEEA-γGlu-C20 diacid])RAQDFVRWLV[Aib]E-NH2
modifications: N-terminus assumed
SMILES: CC(C)C[C@H](NC(=O)[C@H](Cc1c[nH]c2ccccc12)NC(=O)[C@H](CCCNC(=N)N)NC(=O)[C@@H](NC(=O)[C@H](Cc1ccccc1)NC(=O)[C@H](CC(=O)O)NC(=O)[C@H](CCC(N)=O)NC(=O)[C@H](C)NC(=O)[C@H](CCCNC(=N)N)NC(=O)[C@H](CCCCNC(=O)COCCOCCNC(=O)COCCOCCNC(=O)CC[C@H](NC(=O)CCCCCCCCCCCCCCCCCCC(=O)O)C(=O)O)NC(=O)[C@H](CCCNC(=N)N)NC(=O)[C@H](CC(=O)O)NC(=O)[C@H](CC(C)C)NC(=O)[C@](C)(Cc1ccccc1)NC(=O)[C@H](CCCCN)NC(=O)[C@H](CO)NC(=O)[C@@H](NC(=O)[C@H](CC(=O)O)NC(=O)[C@H](CO)NC(=O)[C@@H](NC(=O)[C@H](Cc1ccccc1)NC(=O)[C@@H](NC(=O)CNC(=O)[C@H](CCC(N)=O)NC(=O)C(C)(C)NC(=O)[C@@H](N)Cc1c[nH]cn1)[C@@H](C)O)[C@@H](C)O)C(C)C)C(C)C)C(=O)N[C@H](C(=O)NC(C)(C)C(=O)N[C@@H](CCC(=O)O)C(N)=O)C(C)C
B3: Peptide 438 (peptide)
peptide: H[Aib]QGTFTSDVSK[αMeF]LDKK([AEEA-AEEA-γGlu-C18 diacid])RAQDFVRWLEA[Aib]G-NH2
modifications: N-terminus assumed
SMILES: CC(C)C[C@H](NC(=O)[C@H](Cc1c[nH]c2ccccc12)NC(=O)[C@H](CCCNC(=N)N)NC(=O)[C@@H](NC(=O)[C@H](Cc1ccccc1)NC(=O)[C@H](CC(=O)O)NC(=O)[C@H](CCC(N)=O)NC(=O)[C@H](C)NC(=O)[C@H](CCCNC(=N)N)NC(=O)[C@H](CCCCNC(=O)COCCOCCNC(=O)COCCOCCNC(=O)CC[C@H](NC(=O)CCCCCCCCCCCCCCCCC(=O)O)C(=O)O)NC(=O)[C@H](CCCCN)NC(=O)[C@H](CC(=O)O)NC(=O)[C@H](CC(C)C)NC(=O)[C@](C)(Cc1ccccc1)NC(=O)[C@H](CCCCN)NC(=O)[C@H](CO)NC(=O)[C@@H](NC(=O)[C@H](CC(=O)O)NC(=O)[C@H](CO)NC(=O)[C@@H](NC(=O)[C@H](Cc1ccccc1)NC(=O)[C@@H](NC(=O)CNC(=O)[C@H](CCC(N)=O)NC(=O)C(C)(C)NC(=O)[C@@H](N)Cc1c[nH]cn1)[C@@H](C)O)[C@@H](C)O)C(C)C)C(C)C)C(=O)N[C@@H](CCC(=O)O)C(=O)N[C@@H](C)C(=O)NC(C)(C)C(=O)NCC(N)=O
B4: Peptide 439 (peptide)
peptide: H[Aib]QGTFTSDVSK[αMeF]LDRK([AEEA-AEEA-γGlu-C18 diacid])RAQDFVRWLL[Aib]E-NH2
modifications: N-terminus assumed
SMILES: CC(C)C[C@H](NC(=O)[C@H](Cc1c[nH]c2ccccc12)NC(=O)[C@H](CCCNC(=N)N)NC(=O)[C@@H](NC(=O)[C@H](Cc1ccccc1)NC(=O)[C@H](CC(=O)O)NC(=O)[C@H](CCC(N)=O)NC(=O)[C@H](C)NC(=O)[C@H](CCCNC(=N)N)NC(=O)[C@H](CCCCNC(=O)COCCOCCNC(=O)COCCOCCNC(=O)CC[C@H](NC(=O)CCCCCCCCCCCCCCCCC(=O)O)C(=O)O)NC(=O)[C@H](CCCNC(=N)N)NC(=O)[C@H](CC(=O)O)NC(=O)[C@H](CC(C)C)NC(=O)[C@](C)(Cc1ccccc1)NC(=O)[C@H](CCCCN)NC(=O)[C@H](CO)NC(=O)[C@@H](NC(=O)[C@H](CC(=O)O)NC(=O)[C@H](CO)NC(=O)[C@@H](NC(=O)[C@H](Cc1ccccc1)NC(=O)[C@@H](NC(=O)CNC(=O)[C@H](CCC(N)=O)NC(=O)C(C)(C)NC(=O)[C@@H](N)Cc1c[nH]cn1)[C@@H](C)O)[C@@H](C)O)C(C)C)C(C)C)C(=O)N[C@@H](CC(C)C)C(=O)NC(C)(C)C(=O)N[C@@H](CCC(=O)O)C(N)=O
B5: Peptide 435 (peptide)
peptide: H[Aib]QGTFTSDVSK[αMeF]LDTK([AEEA-AEEA-γGlu-C18 diacid])RARDFVQ[Aib]LLE[Aib]G-OH
modifications: N-terminus assumed
SMILES: CC(C)C[C@H](NC(=O)[C@H](CC(C)C)NC(=O)C(C)(C)NC(=O)[C@H](CCC(N)=O)NC(=O)[C@@H](NC(=O)[C@H](Cc1ccccc1)NC(=O)[C@H](CC(=O)O)NC(=O)[C@H](CCCNC(=N)N)NC(=O)[C@H](C)NC(=O)[C@H](CCCNC(=N)N)NC(=O)[C@H](CCCCNC(=O)COCCOCCNC(=O)COCCOCCNC(=O)CC[C@H](NC(=O)CCCCCCCCCCCCCCCCC(=O)O)C(=O)O)NC(=O)[C@@H](NC(=O)[C@H](CC(=O)O)NC(=O)[C@H](CC(C)C)NC(=O)[C@](C)(Cc1ccccc1)NC(=O)[C@H](CCCCN)NC(=O)[C@H](CO)NC(=O)[C@@H](NC(=O)[C@H](CC(=O)O)NC(=O)[C@H](CO)NC(=O)[C@@H](NC(=O)[C@H](Cc1ccccc1)NC(=O)[C@@H](NC(=O)CNC(=O)[C@H](CCC(N)=O)NC(=O)C(C)(C)NC(=O)[C@@H](N)Cc1c[nH]cn1)[C@@H](C)O)[C@@H](C)O)C(C)C)[C@@H](C)O)C(C)C)C(=O)N[C@@H](CCC(=O)O)C(=O)NC(C)(C)C(=O)NCC(=O)O
B6: Peptide 442 (peptide)
peptide: H[Aib]QGTFTSDVSK[αMeF]LDKK([AEEA-AEEA-γGlu-C18 diacid])RAQDFVRWLLE[Aib]G-NH2
modifications: N-terminus assumed
SMILES: CC(C)C[C@H](NC(=O)[C@H](Cc1c[nH]c2ccccc12)NC(=O)[C@H](CCCNC(=N)N)NC(=O)[C@@H](NC(=O)[C@H](Cc1ccccc1)NC(=O)[C@H](CC(=O)O)NC(=O)[C@H](CCC(N)=O)NC(=O)[C@H](C)NC(=O)[C@H](CCCNC(=N)N)NC(=O)[C@H](CCCCNC(=O)COCCOCCNC(=O)COCCOCCNC(=O)CC[C@H](NC(=O)CCCCCCCCCCCCCCCCC(=O)O)C(=O)O)NC(=O)[C@H](CCCCN)NC(=O)[C@H](CC(=O)O)NC(=O)[C@H](CC(C)C)NC(=O)[C@](C)(Cc1ccccc1)NC(=O)[C@H](CCCCN)NC(=O)[C@H](CO)NC(=O)[C@@H](NC(=O)[C@H](CC(=O)O)NC(=O)[C@H](CO)NC(=O)[C@@H](NC(=O)[C@H](Cc1ccccc1)NC(=O)[C@@H](NC(=O)CNC(=O)[C@H](CCC(N)=O)NC(=O)C(C)(C)NC(=O)[C@@H](N)Cc1c[nH]cn1)[C@@H](C)O)[C@@H](C)O)C(C)C)C(C)C)C(=O)N[C@@H](CC(C)C)C(=O)N[C@@H](CCC(=O)O)C(=O)NC(C)(C)C(=O)NCC(N)=O
B7: Peptide 436 (peptide)
peptide: H[Aib]QGTFTSDVSK[αMeF]LDRK([AEEA-AEEA-γGlu-C18 diacid])RAQDFVRWLV[Aib]E-NH2
modifications: N-terminus assumed
SMILES: CC(C)C[C@H](NC(=O)[C@H](Cc1c[nH]c2ccccc12)NC(=O)[C@H](CCCNC(=N)N)NC(=O)[C@@H](NC(=O)[C@H](Cc1ccccc1)NC(=O)[C@H](CC(=O)O)NC(=O)[C@H](CCC(N)=O)NC(=O)[C@H](C)NC(=O)[C@H](CCCNC(=N)N)NC(=O)[C@H](CCCCNC(=O)COCCOCCNC(=O)COCCOCCNC(=O)CC[C@H](NC(=O)CCCCCCCCCCCCCCCCC(=O)O)C(=O)O)NC(=O)[C@H](CCCNC(=N)N)NC(=O)[C@H](CC(=O)O)NC(=O)[C@H](CC(C)C)NC(=O)[C@](C)(Cc1ccccc1)NC(=O)[C@H](CCCCN)NC(=O)[C@H](CO)NC(=O)[C@@H](NC(=O)[C@H](CC(=O)O)NC(=O)[C@H](CO)NC(=O)[C@@H](NC(=O)[C@H](Cc1ccccc1)NC(=O)[C@@H](NC(=O)CNC(=O)[C@H](CCC(N)=O)NC(=O)C(C)(C)NC(=O)[C@@H](N)Cc1c[nH]cn1)[C@@H](C)O)[C@@H](C)O)C(C)C)C(C)C)C(=O)N[C@H](C(=O)NC(C)(C)C(=O)N[C@@H](CCC(=O)O)C(N)=O)C(C)C
B8: Peptide 440 (peptide)
peptide: H[Aib]QGTFTSDVSK[αMeF]LDKK([AEEA-AEEA-γGlu-C20 diacid])RARDFVRWLL[Aib]E-OH
modifications: N-terminus assumed
SMILES: CC(C)C[C@H](NC(=O)[C@H](Cc1c[nH]c2ccccc12)NC(=O)[C@H](CCCNC(=N)N)NC(=O)[C@@H](NC(=O)[C@H](Cc1ccccc1)NC(=O)[C@H](CC(=O)O)NC(=O)[C@H](CCCNC(=N)N)NC(=O)[C@H](C)NC(=O)[C@H](CCCNC(=N)N)NC(=O)[C@H](CCCCNC(=O)COCCOCCNC(=O)COCCOCCNC(=O)CC[C@H](NC(=O)CCCCCCCCCCCCCCCCCCC(=O)O)C(=O)O)NC(=O)[C@H](CCCCN)NC(=O)[C@H](CC(=O)O)NC(=O)[C@H](CC(C)C)NC(=O)[C@](C)(Cc1ccccc1)NC(=O)[C@H](CCCCN)NC(=O)[C@H](CO)NC(=O)[C@@H](NC(=O)[C@H](CC(=O)O)NC(=O)[C@H](CO)NC(=O)[C@@H](NC(=O)[C@H](Cc1ccccc1)NC(=O)[C@@H](NC(=O)CNC(=O)[C@H](CCC(N)=O)NC(=O)C(C)(C)NC(=O)[C@@H](N)Cc1c[nH]cn1)[C@@H](C)O)[C@@H](C)O)C(C)C)C(C)C)C(=O)N[C@@H](CC(C)C)C(=O)NC(C)(C)C(=O)N[C@@H](CCC(=O)O)C(=O)O

molecular target: human GLP-1 receptor (human, UniProt P43220); assay: cell-based or functional assay

Which “cAMP production EC50” value does the source give for B1 here?
The value was 0.0627 nM.

For B2, which “cAMP production EC50” value is on record?
Its value is 0.0269 nM.

How did the “cAMP production EC50” value turn out when B3 was run?
The value was 0.0179 nM.

How did the “cAMP production EC50” value turn out when B4 was run?
The value was 0.0307 nM.

B5 was tested. Which “cAMP production EC50” value did it give?
The value was 0.0227 nM.

Which “cAMP production EC50” value does the source give for B6 here?
The value was 0.0191 nM.

With B7 as the binder, how does the “cAMP production EC50” value read?
The value was 0.00743 nM.

B8 was tested. Which “cAMP production EC50” value did it give?
The value was 0.154 nM.

molecular target: human glucagon receptor (human, UniProt P47871); assay: cell-based or functional assay

For B1, which “cAMP production EC50” value is on record?
Its value is 0.0728 nM.

How did the “cAMP production EC50” value turn out when B2 was run?
The value was 0.0969 nM.

How did the “cAMP production EC50” value turn out when B3 was run?
Its value is 0.0689 nM.

How did the “cAMP production EC50” value turn out when B4 was run?
Its value is 0.0577 nM.

B5 was tested. Which “cAMP production EC50” value did it give?
Its value is 0.24 nM.

B6 was tested. Which “cAMP production EC50” value did it give?
The value was 0.0358 nM.

With B7 as the binder, how does the “cAMP production EC50” value read?
Its value is 0.0688 nM.

For B8, which “cAMP production EC50” value is on record?
Its value is 0.081 nM.

From patent US12630600B2 (MEDIMMUNE LIMITED, priority 2022, dated 2026)
